From patent US20250032566A1 (YEDA RESEARCH AND DEVELOPMENT, published 2025)

Legend:
[1] = molecular target: T1, ThsA (Thoeris defense system protein) (UniProt J8G6Z1 1-476); assay: His-tag pulldown on Ni-NTA magnetic beads from E. coli lysate co-expressing TAD1-His, ThsA and ThsB; SDS-PAGE
T1 construct: Expressed from pBAD as a ThsA-ThsB operon in E. coli MG1655; also called Thoeris (ThsA/B)
T1 sequence: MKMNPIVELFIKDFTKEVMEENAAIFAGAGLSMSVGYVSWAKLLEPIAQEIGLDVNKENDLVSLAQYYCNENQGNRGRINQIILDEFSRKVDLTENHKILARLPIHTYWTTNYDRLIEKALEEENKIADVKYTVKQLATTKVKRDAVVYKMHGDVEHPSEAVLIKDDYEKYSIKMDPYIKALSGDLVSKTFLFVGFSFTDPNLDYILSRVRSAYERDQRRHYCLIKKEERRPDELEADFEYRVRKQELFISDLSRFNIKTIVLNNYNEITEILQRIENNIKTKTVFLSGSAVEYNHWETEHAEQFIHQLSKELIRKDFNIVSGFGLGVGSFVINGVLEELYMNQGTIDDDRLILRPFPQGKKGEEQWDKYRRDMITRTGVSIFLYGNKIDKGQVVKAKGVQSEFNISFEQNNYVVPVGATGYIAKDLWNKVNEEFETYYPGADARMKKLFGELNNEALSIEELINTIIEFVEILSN

[2] = molecular target: T2, ThsB (Thoeris defense system TIR-domain protein) (UniProt J8G8J6 1-192); assay: as above
T2 construct: Expressed from pBAD as a ThsA-ThsB operon in E. coli MG1655; also called Thoeris (ThsA/B)
T2 sequence: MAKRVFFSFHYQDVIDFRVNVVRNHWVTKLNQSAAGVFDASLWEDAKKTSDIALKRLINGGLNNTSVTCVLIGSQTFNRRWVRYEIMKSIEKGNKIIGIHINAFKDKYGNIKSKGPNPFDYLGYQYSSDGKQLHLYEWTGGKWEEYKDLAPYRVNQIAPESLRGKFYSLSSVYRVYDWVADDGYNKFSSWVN

B1: TAD1 (Thoeris Anti Defense 1) from phage SBSphiJ7 with a C-terminal His-tag (other)
chain: MRELKHELLPTRHTQVFHEDKDKMEFNAPHHFVVVPAGSPLVDQQIHYGRGGNSKKVTVKDFAGKLATVNFQLGPVTEHGANGVMNEDLIAMVITRLQYFQNSEFNCRENAMAITKLEEALMWLNKRTAEREQRGVEGTHEK
notes: Co-expressed with ThsA and ThsB in E. coli MG1655 and pulled down on Ni-NTA magnetic beads; also called TAD1-His; His-TAD1; not shown: C-terminal His-tag
- binding result [1]: no binding
- binding result [2]: no binding
